Results: paper PMC7102498

Biological target: T1, QseB (Escherichia coli ECDCM2 (clinical bovine mastitis isolate)) (UniProt P52076)
T1 sequence: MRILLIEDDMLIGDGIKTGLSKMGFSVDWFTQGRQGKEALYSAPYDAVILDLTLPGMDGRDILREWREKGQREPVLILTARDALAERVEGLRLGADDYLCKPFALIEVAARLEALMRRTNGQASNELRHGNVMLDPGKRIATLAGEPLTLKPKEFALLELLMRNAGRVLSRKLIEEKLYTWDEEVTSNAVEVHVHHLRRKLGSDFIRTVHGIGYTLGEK
Assay: EMSA

With “ATGTTCGTGAATTTACAGGCGTTAGATTTACATACATTTGTGAATGTATGTACCATAGCACGACGATAATATAAACGCAGCAATGGGTTTATTAACTTTTGACCATTGACCAATTTGAAATCGGACACTCGAGGTTTACAT (double strand) [p-acrA promoter]” the binding was “no binding”.
